# According to patent publication US10925971B2, “Methods of treating PRLR positive breast cancer” (Regeneron Pharmaceuticals, Inc., priority 2016, dated 2021):
# B1: H1H6958N2: anti-PRLR antibody, receptor blocking, human IgG1 Fc form of H2M6958N2 of Table 1; HCVR/LCVR SEQ ID NOs 290/298 (antibody, V domains shown)
# VH: QVQLVESGGGVVQPGRSLRLSCGASGFTFRNYGMQWVRQGPGKGLEWVTLISFDGNDKYYADSVKGRFTISRDNSKNTLFLQMNSLRTEDTAVYYCARGGDFDYWGQGTLVTVSS
# VL: DIQMTQSPSSLSASVGDRVTITCRASQDIRKDLGWYQQKPGKAPKRLIYAASSLHSGVPSRFSGSGSGTEFTLTISSLQPEDFATYYCLQHNSYPMYTFGQGTKLEIK
# Molecular target: T1, hPRLR-mmH (SEQ ID NO:406) (Homo sapiens, UniProt P16471)
# T1 construct: this experiment was conducted with a truncated form of PRLR (i.e., hPRLR-mmH)
# Assay: Epitope mapping by hydrogen/deuterium exchange with MALDI-TOF MS
# Assay type: binding
# Procedure: Experiments were conducted to determine the amino acid residues of PRLR with which H1H6958N2 interacts. For this purpose hydrogen/deuterium (H/D) exchange epitope mapping was carried out. A general description of the H/D exchange method is set forth in e.g., Ehring (1999) Analytical Biochemistry 267(2):252-259; and Engen and Smith (2001) Anal. Chem. 73:256A-265A.
# To map the binding epitope(s) of antibody H1H6958N2 on hPRLR via H/D exchange, a construct comprising a recombinant extracellular domain of hPRLR with a C-terminal myc-myc-hexahistidine tag (hPRLR-mmH; SEQ ID NO: SEQ ID NO:406) was buffer exchanged to PBS with a final concentration of 8 mg/mL, and antibody H1H6958N2 was covalently attached to N-hydroxysuccinimide (NHS) agarose beads (GE Lifescience)
# In the ‘on-solution/off-beads’ (on-exchange in solution followed by off-exchange on beads) experiment, the hPRLR was deuterated for 5 min or 10 min in PBS buffer prepared with D2O, and then bound to H1H6958N2 beads through a 2 min incubation. The hPRLR-bound beads were washed with PBS aqueous buffer (prepared with H2O) and incubated PBS buffer for half of the on-exchange time. After the off-exchange, the bound hPRLR was eluted from beads with an ice-cold low pH TFA solution. The eluted hPRLR was then digested with immobilized pepsin (Thermo Scientific) for 5 min. The resulting peptides were desalted using ZipTip® chromatographic pipette tips and immediately analyzed by UltrafleXtreme matrix assisted laser desorption ionization time of flight (MALDI-TOF)-TOF mass spectrometry (MS).
# In the ‘on-beads/off-beads’ (on-exchange on beads followed by off-exchange on beads) experiment, hPRLR was first bound to H1H6958N2 beads and then incubated for 5 min or 10 min in D2O for on-exchange. The following steps (off-exchange, pepsin digestion, and MS analysis) were carried out as described for the ‘on-solution/off-beads’ procedure. The centroid values or average mass-to-charge ratios (m/z) of all the detected peptides were calculated and compared between these two sets of experiments.
# The results are summarized in Table 29 which provides a comparison of the centroid m/z values for all the detected peptides identified by liquid chromatography and MS following the H/D exchange and peptic digest procedure described above. For purposes of the present Example, a positive difference (A) of at least 0.20 m/z in both experiments indicates amino acids protected by antibody binding. Segments meeting this criterion are indicated by bold text and an asterisk (*) in Table 29. [Note that, although this experiment was conducted with a truncated form of PRLR (i.e., hPRLR-mmH; SEQ ID NO: 406), residue numbering in the far left column of Table 29 has been adjusted to correspond to the amino acid sequence of the full-length PRLR protein represented by SEQ ID NO: 404.]
# [1] = hPRLR peptide residues 168-180 of SEQ ID NO: 404, Experiment II 10 min on-/5 min off-exchange
# [2] = hPRLR peptide residues 169-180 of SEQ ID NO: 404, Experiment I 5 min on-/2.5 min off-exchange
# [3] = hPRLR peptide residues 169-180 of SEQ ID NO: 404, Experiment II 10 min on-/5 min off-exchange
# [4] = hPRLR peptide residues 170-179 of SEQ ID NO: 404, Experiment I 5 min on-/2.5 min off-exchange
# [5] = hPRLR peptide residues 170-179 of SEQ ID NO: 404, Experiment II 10 min on-/5 min off-exchange
# [6] = hPRLR peptide residues 170-180 of SEQ ID NO: 404, Experiment I 5 min on-/2.5 min off-exchange
# [7] = hPRLR peptide residues 170-180 of SEQ ID NO: 404, Experiment II 10 min on-/5 min off-exchange
# [8] = hPRLR peptide residues 191-205 of SEQ ID NO: 404, Experiment I 5 min on-/2.5 min off-exchange
# [9] = hPRLR peptide residues 191-205 of SEQ ID NO: 404, Experiment II 10 min on-/5 min off-exchange
# [10] = hPRLR peptide residues 192-202 of SEQ ID NO: 404, Experiment I 5 min on-/2.5 min off-exchange
# [11] = hPRLR peptide residues 192-202 of SEQ ID NO: 404, Experiment II 10 min on-/5 min off-exchange
# [12] = hPRLR peptide residues 192-205 of SEQ ID NO: 404, Experiment I 5 min on-/2.5 min off-exchange
# [13] = hPRLR peptide residues 192-205 of SEQ ID NO: 404, Experiment II 10 min on-/5 min off-exchange
# [14] = hPRLR peptide residues 206-215 of SEQ ID NO: 404, Experiment I 5 min on-/2.5 min off-exchange
# [15] = hPRLR peptide residues 206-215 of SEQ ID NO: 404, Experiment II 10 min on-/5 min off-exchange
# [16] = hPRLR peptide residues 206-217 of SEQ ID NO: 404, Experiment I 5 min on-/2.5 min off-exchange
# [17] = hPRLR peptide residues 206-217 of SEQ ID NO: 404, Experiment II 10 min on-/5 min off-exchange
# [18] = hPRLR peptide residues 206-222 of SEQ ID NO: 404, Experiment I 5 min on-/2.5 min off-exchange
# [19] = hPRLR peptide residues 206-222 of SEQ ID NO: 404, Experiment II 10 min on-/5 min off-exchange
# [20] = hPRLR peptide residues 236-249 of SEQ ID NO: 404, Experiment I 5 min on-/2.5 min off-exchange
# [21] = hPRLR peptide residues 236-249 of SEQ ID NO: 404, Experiment II 10 min on-/5 min off-exchange
# [22] = hPRLR peptide residues 238-261 of SEQ ID NO: 404, Experiment I 5 min on-/2.5 min off-exchange
# [23] = hPRLR peptide residues 238-261 of SEQ ID NO: 404, Experiment II 10 min on-/5 min off-exchange
# [24] = hPRLR peptide residues 241-261 of SEQ ID NO: 404, Experiment I 5 min on-/2.5 min off-exchange
# [25] = hPRLR peptide residues 241-261 of SEQ ID NO: 404, Experiment II 10 min on-/5 min off-exchange
# [26] = hPRLR peptide residues 250-261 of SEQ ID NO: 404, Experiment I 5 min on-/2.5 min off-exchange
# [27] = hPRLR peptide residues 250-261 of SEQ ID NO: 404, Experiment II 10 min on-/5 min off-exchange
# T1 sequence (P16471 with tags, fused parts or gaps): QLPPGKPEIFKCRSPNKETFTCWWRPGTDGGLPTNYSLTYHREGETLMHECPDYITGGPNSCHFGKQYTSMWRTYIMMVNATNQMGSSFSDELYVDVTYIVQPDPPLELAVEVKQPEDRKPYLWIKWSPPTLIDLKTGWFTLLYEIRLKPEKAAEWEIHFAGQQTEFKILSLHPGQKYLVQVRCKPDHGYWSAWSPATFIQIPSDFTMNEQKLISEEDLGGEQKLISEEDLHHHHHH
molecule,measurement,setting,value
B1,Δ (centroid m/z difference),"hPRLR peptide residues 168-180 of SEQ ID NO: 404, Experiment I 5 min on-/2.5 min off-exchange",−0.06 m/z
same,"centroid m/z, on-beads/off-beads",[1],1633.64 m/z
same,"centroid m/z, on-solution/off beads",[1],1633.71 m/z
same,Δ (centroid m/z difference),[1],0.08 m/z
same,"centroid m/z, on-beads/off-beads",[2],1469.86 m/z
same,"centroid m/z, on-solution/off beads",[2],1469.67 m/z
same,Δ (centroid m/z difference),[2],−0.19 m/z
same,"centroid m/z, on-beads/off-beads",[3],1469.67 m/z
same,"centroid m/z, on-solution/off beads",[3],1469.71 m/z
same,Δ (centroid m/z difference),[3],0.04 m/z
same,"centroid m/z, on-beads/off-beads",[4],1155.35 m/z
same,"centroid m/z, on-solution/off beads",[4],1155.40 m/z
same,Δ (centroid m/z difference),[4],0.05 m/z
same,"centroid m/z, on-beads/off-beads",[5],1155.39 m/z
same,"centroid m/z, on-solution/off beads",[5],1155.40 m/z
same,Δ (centroid m/z difference),[5],0.01 m/z
same,"centroid m/z, on-beads/off-beads",[6],1341.66 m/z
same,"centroid m/z, on-solution/off beads",[6],1341.62 m/z
same,Δ (centroid m/z difference),[6],−0.04 m/z
same,"centroid m/z, on-beads/off-beads",[7],1341.34 m/z
same,"centroid m/z, on-solution/off beads",[7],1341.49 m/z
same,Δ (centroid m/z difference),[7],0.15 m/z
same,"centroid m/z, on-beads/off-beads",[8],1772.03 m/z
same,"centroid m/z, on-solution/off beads",[8],1772.03 m/z
same,Δ (centroid m/z difference),[8],−0.01 m/z
same,"centroid m/z, on-beads/off-beads",[9],1772.28 m/z
same,"centroid m/z, on-solution/off beads",[9],1772.15 m/z
same,Δ (centroid m/z difference),[9],−0.13 m/z
same,"centroid m/z, on-beads/off-beads",[10],1284.39 m/z
same,"centroid m/z, on-solution/off beads",[10],1284.36 m/z
same,Δ (centroid m/z difference),[10],−0.03 m/z
same,"centroid m/z, on-beads/off-beads",[11],1284.43 m/z
same,"centroid m/z, on-solution/off beads",[11],1284.32 m/z
same,Δ (centroid m/z difference),[11],−0.11 m/z
same,"centroid m/z, on-beads/off-beads",[12],1624.98 m/z
same,"centroid m/z, on-solution/off beads",[12],1624.94 m/z
same,Δ (centroid m/z difference),[12],−0.04 m/z
same,"centroid m/z, on-beads/off-beads",[13],1625.17 m/z
same,"centroid m/z, on-solution/off beads",[13],1625.08 m/z
same,Δ (centroid m/z difference),[13],−0.10 m/z
same,"centroid m/z, on-beads/off-beads",[14],1261.33 m/z
same,"centroid m/z, on-solution/off beads",[14],1261.44 m/z
same,Δ (centroid m/z difference),[14],0.11 m/z
same,"centroid m/z, on-beads/off-beads",[15],1261.46 m/z
same,"centroid m/z, on-solution/off beads",[15],1261.24 m/z
same,Δ (centroid m/z difference),[15],−0.22 m/z
same,"centroid m/z, on-beads/off-beads",[16],1419.65 m/z
same,"centroid m/z, on-solution/off beads",[16],1419.64 m/z
same,Δ (centroid m/z difference),[16],−0.01 m/z
same,"centroid m/z, on-beads/off-beads",[17],1419.45 m/z
same,"centroid m/z, on-solution/off beads",[17],1419.48 m/z
same,Δ (centroid m/z difference),[17],0.02 m/z
same,"centroid m/z, on-beads/off-beads",[18],1962.39 m/z
same,"centroid m/z, on-solution/off beads",[18],1962.58 m/z
same,"centroid m/z, on-beads/off-beads",[19],1962.63 m/z
same,"centroid m/z, on-solution/off beads",[19],1962.52 m/z
same,Δ (centroid m/z difference),[19],−0.10 m/z
same,"centroid m/z, on-beads/off-beads",[20],1560.76 m/z
same,"centroid m/z, on-solution/off beads",[20],1560.81 m/z
same,Δ (centroid m/z difference),[20],0.05 m/z
same,"centroid m/z, on-beads/off-beads",[21],1560.83 m/z
same,"centroid m/z, on-solution/off beads",[21],1560.81 m/z
same,Δ (centroid m/z difference),[21],−0.01 m/z
same,"centroid m/z, on-beads/off-beads",[22],2827.99 m/z
same,"centroid m/z, on-solution/off beads",[22],2828.15 m/z
same,Δ (centroid m/z difference),[22],0.16 m/z
same,"centroid m/z, on-beads/off-beads",[23],2828.17 m/z
same,"centroid m/z, on-solution/off beads",[23],2827.99 m/z
same,Δ (centroid m/z difference),[23],−0.18 m/z
same,"centroid m/z, on-beads/off-beads",[24],2498.74 m/z
same,"centroid m/z, on-solution/off beads",[24],2498.70 m/z
same,Δ (centroid m/z difference),[24],−0.04 m/z
same,"centroid m/z, on-beads/off-beads",[25],2498.88 m/z
same,"centroid m/z, on-solution/off beads",[25],2498.68 m/z
same,Δ (centroid m/z difference),[25],−0.20 m/z
same,"centroid m/z, on-beads/off-beads",[26],1528.75 m/z
same,"centroid m/z, on-solution/off beads",[26],1528.68 m/z
same,Δ (centroid m/z difference),[26],−0.06 m/z
same,"centroid m/z, on-beads/off-beads",[27],1528.71 m/z
same,"centroid m/z, on-solution/off beads",[27],1528.64 m/z
same,Δ (centroid m/z difference),[27],−0.07 m/z
